This passage reports Kd, inhibition of ERK2 phosphorylation of GST-Cx43CT (236-382) (in vitro kinase assay, Western blot with Cx43 pS279/S282 antibodies) in presence of CaM (~90% saturation) and inhibition of Src phosphorylation of GST-Cx43CT (236-382) (in vitro kinase assay, Western blot with Cx43 pY265 antibody) in presence of CaM (~90% saturation) results from article PMC7602980.

In assay [1] the target is Cx43CT CT (Rattus norvegicus) (UniProt P08050). To be noted: cited from earlier work.
The target in assay [2] is Cx43CT_(236-382) (rat) (UniProt P08050).

As a reminder, the Kd is a measure of binding affinity in units of concentration.

Chain of Drebrin (Q16643 2-649): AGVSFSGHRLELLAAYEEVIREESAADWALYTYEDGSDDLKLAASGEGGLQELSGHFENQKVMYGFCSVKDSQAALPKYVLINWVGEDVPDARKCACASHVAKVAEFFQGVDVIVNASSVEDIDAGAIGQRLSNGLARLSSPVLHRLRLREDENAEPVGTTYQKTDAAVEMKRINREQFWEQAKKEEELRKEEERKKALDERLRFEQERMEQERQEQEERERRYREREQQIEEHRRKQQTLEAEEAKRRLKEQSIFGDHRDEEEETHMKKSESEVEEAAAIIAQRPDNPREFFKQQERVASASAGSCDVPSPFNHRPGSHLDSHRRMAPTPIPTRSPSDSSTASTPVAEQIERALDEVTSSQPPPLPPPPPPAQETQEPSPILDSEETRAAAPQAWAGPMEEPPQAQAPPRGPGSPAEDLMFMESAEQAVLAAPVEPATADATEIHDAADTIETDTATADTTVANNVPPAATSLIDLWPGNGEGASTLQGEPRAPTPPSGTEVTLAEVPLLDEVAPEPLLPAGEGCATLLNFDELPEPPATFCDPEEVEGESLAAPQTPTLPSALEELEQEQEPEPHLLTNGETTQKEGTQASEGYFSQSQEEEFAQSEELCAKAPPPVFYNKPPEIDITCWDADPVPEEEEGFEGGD

On to Drebrin (from UniProt Q16643), for which the Kd in assay [1] is 300 µM.
For the substance “calmodulin (from UniProt P0DP23 1-149) (natural protein)”, in assay [2], the inhibition of ERK2 phosphorylation of GST-Cx43CT (236-382) (in vitro kinase assay, Western blot with Cx43 pS279/S282 antibodies) in presence of CaM (~90% saturation) turned out to be 30% and the inhibition of Src phosphorylation of GST-Cx43CT (236-382) (in vitro kinase assay, Western blot with Cx43 pY265 antibody) in presence of CaM (~90% saturation) amounted to 90%.
